Assay results as given in patent US20230365674 (published 2023).
Changes are numbered by the printed parent chain. Like-named read-outs stand apart in the source and are kept apart here. Values belong to the binder of their own block, whether it stands above or below them.

What was measured:
rat NPR1 = target: T1, rat NPR1 (rat); experiment: ELISA
T1 chain: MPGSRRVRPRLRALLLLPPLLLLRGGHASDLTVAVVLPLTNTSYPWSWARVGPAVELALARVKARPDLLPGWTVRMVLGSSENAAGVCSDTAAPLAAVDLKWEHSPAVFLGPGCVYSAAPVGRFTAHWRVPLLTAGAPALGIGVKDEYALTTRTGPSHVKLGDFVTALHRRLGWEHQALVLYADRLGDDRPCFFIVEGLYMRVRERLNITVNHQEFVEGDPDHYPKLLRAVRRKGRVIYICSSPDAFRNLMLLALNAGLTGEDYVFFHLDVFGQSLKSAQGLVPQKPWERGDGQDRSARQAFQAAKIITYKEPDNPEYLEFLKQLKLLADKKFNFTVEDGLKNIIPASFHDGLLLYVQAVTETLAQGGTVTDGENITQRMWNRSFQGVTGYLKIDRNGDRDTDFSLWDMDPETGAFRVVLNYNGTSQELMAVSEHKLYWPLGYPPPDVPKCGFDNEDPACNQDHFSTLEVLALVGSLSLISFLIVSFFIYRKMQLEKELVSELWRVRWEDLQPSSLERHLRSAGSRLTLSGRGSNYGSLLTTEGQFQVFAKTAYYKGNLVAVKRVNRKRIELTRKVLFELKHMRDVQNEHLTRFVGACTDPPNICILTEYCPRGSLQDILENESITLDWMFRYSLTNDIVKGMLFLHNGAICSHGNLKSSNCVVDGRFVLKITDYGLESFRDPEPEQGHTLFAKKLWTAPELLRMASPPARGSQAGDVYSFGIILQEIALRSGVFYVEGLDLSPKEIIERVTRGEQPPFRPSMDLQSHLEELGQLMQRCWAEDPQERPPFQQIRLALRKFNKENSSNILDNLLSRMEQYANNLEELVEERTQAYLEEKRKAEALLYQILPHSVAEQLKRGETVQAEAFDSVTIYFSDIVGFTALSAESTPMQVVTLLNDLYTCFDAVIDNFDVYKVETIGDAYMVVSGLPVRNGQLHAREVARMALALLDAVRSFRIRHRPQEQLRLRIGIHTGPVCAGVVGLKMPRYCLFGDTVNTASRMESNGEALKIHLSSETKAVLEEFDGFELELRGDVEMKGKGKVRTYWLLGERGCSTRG

human NPR1 W74R + ANP [1] = target: T2, human NPR1 W74R + ANP (human); experiment: ELISA
T2 chain 1: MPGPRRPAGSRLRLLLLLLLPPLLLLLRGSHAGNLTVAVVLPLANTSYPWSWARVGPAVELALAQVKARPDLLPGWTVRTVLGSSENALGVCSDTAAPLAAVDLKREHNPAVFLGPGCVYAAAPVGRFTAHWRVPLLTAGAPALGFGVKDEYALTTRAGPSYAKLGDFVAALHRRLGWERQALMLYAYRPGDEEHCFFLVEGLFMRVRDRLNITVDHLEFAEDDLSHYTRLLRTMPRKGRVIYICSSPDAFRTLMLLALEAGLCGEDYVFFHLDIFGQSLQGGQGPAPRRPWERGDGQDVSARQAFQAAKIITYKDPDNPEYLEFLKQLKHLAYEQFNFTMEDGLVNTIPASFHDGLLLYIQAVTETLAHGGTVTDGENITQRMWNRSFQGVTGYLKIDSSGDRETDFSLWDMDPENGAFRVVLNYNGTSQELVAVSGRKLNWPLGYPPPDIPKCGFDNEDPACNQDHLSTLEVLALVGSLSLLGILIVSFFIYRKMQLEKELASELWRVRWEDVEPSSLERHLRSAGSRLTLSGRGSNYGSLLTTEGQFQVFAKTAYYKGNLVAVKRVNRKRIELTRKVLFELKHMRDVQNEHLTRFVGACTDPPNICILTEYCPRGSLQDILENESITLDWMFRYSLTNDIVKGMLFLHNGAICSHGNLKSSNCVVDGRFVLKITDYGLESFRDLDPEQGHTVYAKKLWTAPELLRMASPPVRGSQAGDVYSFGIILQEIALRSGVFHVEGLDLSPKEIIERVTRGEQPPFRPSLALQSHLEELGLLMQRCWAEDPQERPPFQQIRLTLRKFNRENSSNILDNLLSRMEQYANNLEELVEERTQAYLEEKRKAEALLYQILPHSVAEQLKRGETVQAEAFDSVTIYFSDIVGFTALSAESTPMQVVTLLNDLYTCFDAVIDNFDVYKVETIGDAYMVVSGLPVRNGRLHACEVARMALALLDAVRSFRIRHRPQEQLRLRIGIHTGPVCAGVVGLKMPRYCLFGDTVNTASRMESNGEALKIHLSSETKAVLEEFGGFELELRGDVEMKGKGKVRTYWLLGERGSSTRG
T2 chain 2: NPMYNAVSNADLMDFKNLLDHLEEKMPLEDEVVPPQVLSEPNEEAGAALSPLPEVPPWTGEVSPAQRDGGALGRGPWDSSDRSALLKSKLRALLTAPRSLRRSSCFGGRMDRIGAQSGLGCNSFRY

rat NPR1-ANP complex = target: T3, rat NPR1-ANP complex (rat); experiment: ELISA
T3 chain 1: T1 chain
T3 chain 2: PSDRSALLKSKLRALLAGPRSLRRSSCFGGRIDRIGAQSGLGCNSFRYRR

human NPR1 [2] = target: T4, human NPR1 (human); experiment: ELISA
T4 chain: T2 chain 1 with R106W

human NPR3 = target: T5, human NPR3 (human, UniProt P17342); experiment: ELISA
T5 chain: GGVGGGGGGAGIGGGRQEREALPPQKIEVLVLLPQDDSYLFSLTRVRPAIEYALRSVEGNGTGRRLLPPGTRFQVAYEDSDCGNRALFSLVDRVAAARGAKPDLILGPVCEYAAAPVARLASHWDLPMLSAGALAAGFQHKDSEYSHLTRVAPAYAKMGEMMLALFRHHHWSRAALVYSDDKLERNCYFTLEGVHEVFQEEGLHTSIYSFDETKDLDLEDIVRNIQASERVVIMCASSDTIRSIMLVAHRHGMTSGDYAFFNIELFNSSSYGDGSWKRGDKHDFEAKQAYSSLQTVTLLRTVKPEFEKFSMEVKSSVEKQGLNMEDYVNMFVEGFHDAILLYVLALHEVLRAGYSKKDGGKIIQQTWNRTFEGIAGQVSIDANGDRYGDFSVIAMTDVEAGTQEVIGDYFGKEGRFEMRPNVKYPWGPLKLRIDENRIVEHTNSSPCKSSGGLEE

human NPR1 W74R [3] = target: T6, human NPR1 W74R (human); experiment: ELISA
T6 chain: T2 chain 1

human NPR3 + ANP = target: T7, human NPR3 + ANP (human, UniProt P17342); experiment: ELISA
T7 chain 1: T5 chain
T7 chain 2: T2 chain 2

human NPR1 W74R [4] = target: T6, human NPR1 W74R; experiment: ELISA
human NPR1 W74R + ANP [5] = target: T2, human NPR1 W74R + ANP; experiment: ELISA
human NPR1-ANP complex [6] = target: T8, human NPR1-ANP complex (human); experiment: ELISA
T8 chain 1: T2 chain 1 with R106W
T8 chain 2: T2 chain 2

human NPR1 [7] = target: T4, human NPR1; experiment: ELISA
human NPR1 [8] = target: T4, human NPR1; experiment: SPR
human NPR1 [9] = target: T4, human NPR1; experiment: SPR
human NPR1-ANP complex [10] = target: T8, human NPR1-ANP complex; experiment: SPR
human NPR1-ANP complex [11] = target: T8, human NPR1-ANP complex; experiment: SPR

binding result (rat NPR1): no binding | binding result (human NPR1 W74R + ANP [1]): no binding | binding result (rat NPR1-ANP complex): no binding | binding result (human NPR1 [2]): no binding | binding result (human NPR3): no binding | binding result (human NPR1 W74R [3]): no binding | binding result (human NPR3 + ANP): no binding
B1: WW01 IgG (antibody, V domains shown)
VH: QVQLLESGGGLVQPGGSLRLSCAASGFTFNTHYIHWVRQAPGKGLEWVSSISGSGSNTYYADSVKGRFTISRDNSKNTLYLQMNSLRAEDTAVYYCARERGYVYYHMFDPWGQGTLVTVSS
VL: DIVLTQSPATLSLSPGERATLSCRASQSITRNYLAWYQQKPGQAPRLLIYGASSRATGIPARFSGSGSGTDFTLTISSLEPEDFAVYYCQQHSMYPRTFGQGTKVEIK

EC50 (human NPR1 W74R [4]): 0.9 nM | EC50 (human NPR1 W74R + ANP [5]): 0.8 nM | binding result (rat NPR1): no binding | binding result (rat NPR1-ANP complex): no binding | EC50 (human NPR1-ANP complex [6]): 1.1 nM | EC50 (human NPR1 [7]): 2.5 nM | binding result (human NPR3): no binding | binding result (human NPR3 + ANP): no binding
B2: WW06 IgG (antibody, V domains shown)
VH: QVQLVQSGAEVKKPGESLKISCKGSGYSFTSYWIAWVRQMPGKGLEWMGRIDPDNSYTRYSPSFQGQVTISADKSISTAYLQWSSLKASDTAMYYCARWLSPGYALGEQPAGMDHWGQGTLVTVSS
VL: DIVLTQPPSVSGAPGQRVTISCTGSSSNIGAGYAVHWYQQLPGTAPKLLIYSNNKRPSGVPDRFSGSKSGTSASLAITGLQAEDEADYYCQSYDLQKSSRVFGGGTKLTVL

Kd (human NPR1 [8]): 5.3 nM | Kd (human NPR1 [9]): 5.3 nM | Kd (human NPR1-ANP complex [10]): 12 nM | Kd (human NPR1-ANP complex [11]): 12 nM
B3: WW06 FabCys (antibody, V domains shown)
VH: B2 VH
VL: B2 VL
